Among the data in patent publication US20240190975A1 are inhibition of the cytotoxic activity of aCCR8-2-CAR-12-expressing KHYG-1 cells against ATN-1 cells (calcein), antibody values, retold here.

Where only a bound is given, the exact number is not on record here.

In this experiment the target is human CCR8 (human) (UniProt P51685). As to the kind of experiment: cell-based or functional assay.
UniProt P51685, sequence (P51685 whole entry): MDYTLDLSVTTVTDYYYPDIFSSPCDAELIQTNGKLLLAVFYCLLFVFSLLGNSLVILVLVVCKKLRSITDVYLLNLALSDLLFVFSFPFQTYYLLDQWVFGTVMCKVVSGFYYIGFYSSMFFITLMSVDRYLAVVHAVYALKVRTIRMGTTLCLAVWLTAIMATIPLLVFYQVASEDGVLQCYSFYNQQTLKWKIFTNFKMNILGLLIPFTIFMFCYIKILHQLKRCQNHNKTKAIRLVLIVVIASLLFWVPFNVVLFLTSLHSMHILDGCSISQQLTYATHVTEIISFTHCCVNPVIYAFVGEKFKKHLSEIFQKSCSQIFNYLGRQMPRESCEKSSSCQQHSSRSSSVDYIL

In the case of “anti-human CCR8 antibody (clone name: L263G8, BioLegend, Inc.)”, the inhibition of the cytotoxic activity of aCCR8-2-CAR-12-expressing KHYG-1 cells against ATN-1 cells (calcein), antibody at 33 nM added 10 minutes before the effector cells was more than 50%.
